Measured values taken from paper PMC2671406 (PLoS ONE, 2009).

Key:
Details in all cases: both partners purified
[1] = target: T1, Human (vertebrate) calmodulin (human, UniProt P0DP23 1-149); experiment: ITC; CaM (0.1 mM) in the cell, CnA-CBD peptide (1 mM) in the syringe, 5 µl injections; +30°C; 10 mM HEPES pH 7.5, 100 mM NaCl, 10 mM CaCl2
T1 construct: also called CaM

[2] = target: T1, Human (vertebrate) calmodulin; experiment: ITC; CaM (0.1 mM) in the cell, CnA-CBD peptide (1 mM) in the syringe, 5 µl injections; +35°C; 10 mM HEPES pH 7.5, 100 mM NaCl, 10 mM CaCl2
[3] = target: T1, Human (vertebrate) calmodulin; experiment: SEC; CaM (200 µl at 176 µM) on Superdex 75 HR 10/30 with and without excess (625 µM) CnA-CBD peptide; 50 mM HEPES pH 7.5, 150 mM NaCl, 4 mM CaCl2

B1: Peptide corresponding to the CaM binding domain of calcineurin A (residues 395-411) (peptide)
peptide: VIRNKIRAIGKMARVFS
notes: also called CnA-CBD; CnA-CBD peptide; source: bought: GL Biochem (Shanghai, China)
Ka [1]: 3.5e+06 M⁻¹ | Kd [1]: 300 nM | dH [1]: -1.8 kcal/mol | Ka [2]: 1.4e+06 M⁻¹ | Kd [2]: 700 nM | dH [2]: -5.7 kcal/mol | stoichiometry N [3]: 1
